Data on two molecules can be found in paper PMC10552185, “Impaired cAMP processivity by phosphodiesterase-protein kinase A complexes in acrodysostosis” (Frontiers in Molecular Biosciences, 2023).

The target in the assay is T1, cAMP-dependent protein kinase (PKA) type I regulatory subunit isoform α, full-length wild type (UniProt P00514 1-380).
T1 construct: PKA type I regulatory subunit α (RIα), full length, UniProtKB P00514 used for the HDXMS peptide search; Cloned in pRSETA; for FP loaded with 8-fl-cAMP or 2'-fl-cAMP; also called RIα; WT RIα
T1 sequence (P00514 whole entry, canonical isoform): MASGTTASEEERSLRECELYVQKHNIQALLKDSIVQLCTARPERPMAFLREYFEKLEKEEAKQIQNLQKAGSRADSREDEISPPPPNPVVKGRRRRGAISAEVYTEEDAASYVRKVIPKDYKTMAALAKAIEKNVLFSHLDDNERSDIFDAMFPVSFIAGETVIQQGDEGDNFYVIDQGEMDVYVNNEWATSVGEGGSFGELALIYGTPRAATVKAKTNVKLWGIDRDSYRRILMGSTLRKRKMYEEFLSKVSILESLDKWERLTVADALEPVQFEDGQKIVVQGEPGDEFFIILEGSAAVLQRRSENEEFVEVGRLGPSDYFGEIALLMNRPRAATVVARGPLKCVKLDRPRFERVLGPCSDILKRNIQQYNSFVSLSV
Nature of the assay: fluorescence polarisation; about 1 uM RIα preloaded with 8-fl-cAMP or 2'-fl-cAMP (excess ligand removed by SEC), about 2 uM PDE8 added; polarisation followed over 120 min; 96-well plates; excess cAMP (25 or 100 uM) added at 20 min in some runs. Particulars: both partners purified.

B1: catalytic domain of wild-type PDE8A1 (472-829) (domain or fragment, UniProt O60658-1 472-829, looked up)
chain: SSNIITPISLDDVPPRIARAMENEEYWDFDIFELEAATHNRPLIYLGLKMFARFGICEFLHCSESTLRSWLQIIEANYHSSNPYHNSTHSADVLHATAYFLSKERIKETLDPIDEVAALIAATIHDVDHPGRTNSFLCNAGSELAILYNDTAVLESHHAALAFQLTTGDDKCNIFKNMERNDYRTLRQGIIDMVLATEMTKHFEHVNKFVNSINKPLATLEENGETDKNQEVINTMLRTPENRTLIKRMLIKCADVSNPCRPLQYCIEWAARISEEYFSQTDEEKQQGLPVVMPVFDRNTCSIPKSQISFIDYFITDMFDAWDAFVDLPDLMQHLDNNFKYWKGLDEMKLRNLRPPPE
notes: PDE8A catalytic domain, residues 472-829 of PDE8A1, UniProtKB O60658 used for the HDXMS peptide search; Cloned in pET-Duet1; also called PDE8 WT; WT PDE8
Regarding B1, the binding result is recorded as “binds”.

B2: PDE8A catalytic domain (472-829) T690P (domain or fragment, UniProt O60658 472-829, looked up)
chain: SSNIITPISLDDVPPRIARAMENEEYWDFDIFELEAATHNRPLIYLGLKMFARFGICEFLHCSESTLRSWLQIIEANYHSSNPYHNSTHSADVLHATAYFLSKERIKETLDPIDEVAALIAATIHDVDHPGRTNSFLCNAGSELAILYNDTAVLESHHAALAFQLTTGDDKCNIFKNMERNDYRTLRQGIIDMVLATEMTKHFEHVNKFVNSINKPLAPLEENGETDKNQEVINTMLRTPENRTLIKRMLIKCADVSNPCRPLQYCIEWAARISEEYFSQTDEEKQQGLPVVMPVFDRNTCSIPKSQISFIDYFITDMFDAWDAFVDLPDLMQHLDNNFKYWKGLDEMKLRNLRPPPE
notes: PDE8A catalytic domain, residues 472-829 of PDE8A1, UniProtKB O60658, with T690P (made as the equivalent of the acrodysostosis mutation PDE4D T594P); Cloned in pET-Duet1; also called PDE8 T690P; PDE8c T690P
For the molecule B2, the binding result is “binds”.
